Drawing on article PMC4232046, “The Janus transcription factor HapX controls fungal adaptation to both iron starvation and iron excess”, this text covers Kd for 1 molecule.

This series has as its target HapX(24-158) (Aspergillus fumigatus, UniProt Q4WER3 24-158). In words: SPR; HapX alone, no CBC; SPR Biacore T200, 25 C; 10 mM phosphate pH 7.4, 2.7 mM KCl, 137 mM NaCl, 1 mM DTT, 0.005% surfactant P20, 10 ug/ml poly(dI-dC); biotin-DNA on streptavidin CM3 chip. The settings on record: protein: recombinant; tags: MBP fusion cleaved with TEV; extended N-terminus with TEV site; chain copies: 2; label: 5' biotin on strand 1; blunt. In general terms: SPR reads the build-up and loss of mass on a sensor chip optically.

Chain of HapX(24-158) (Q4WER3 24-158): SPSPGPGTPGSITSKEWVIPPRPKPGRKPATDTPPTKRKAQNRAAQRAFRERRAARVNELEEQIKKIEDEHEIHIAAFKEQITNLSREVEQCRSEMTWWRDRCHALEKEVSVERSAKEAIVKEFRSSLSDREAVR

B1: cccAp-369-37 (dsDNA)
DNA 1: AAATCCACCAATCAACGCCTCCGTGATTGTCAGCAAT
DNA 2: ATTGCTGACAATCACGGAGGCGTTGATTGGTGGATTT
With B1, the dissociation constant (Kd) turned out to be 171 nM.

In general, Kd refers to the concentration at which binding is half-saturated.
